Patent US20130130922
Read-outs that look alike come from different tables or passages of the source.

Legend:
[1] = biological target: M.SssI (original) (Spiroplasma sp.?) (UniProt P15840); conditions: transalkylation ~2 orders of magnitude lower than double mutant; AdoMet analogs; DNA for this comparison not explicitly stated
[2] = biological target: M.SssI Q142A/N370A Q142A,N370A (Spiroplasma sp.?) (UniProt P15840); conditions: Ado-6-amine 40 uM, Hin6I protection
[3] = biological target: M.SssI Q142A/N370A Q142A,N370A (Spiroplasma sp.?) (UniProt P15840); conditions: Ado-11-amine 160-320 uM, no Mg, MTase:DNA 3.6:1, Hin6I protection
[4] = biological target: M.SssI Q142A/N370A Q142A,N370A (Spiroplasma sp.?) (UniProt P15840)
[5] = biological target: T1, M.HpaII (original) (UniProt P15446); conditions: ~2 orders of magnitude lower transalkylation than double mutant
T1 sequence: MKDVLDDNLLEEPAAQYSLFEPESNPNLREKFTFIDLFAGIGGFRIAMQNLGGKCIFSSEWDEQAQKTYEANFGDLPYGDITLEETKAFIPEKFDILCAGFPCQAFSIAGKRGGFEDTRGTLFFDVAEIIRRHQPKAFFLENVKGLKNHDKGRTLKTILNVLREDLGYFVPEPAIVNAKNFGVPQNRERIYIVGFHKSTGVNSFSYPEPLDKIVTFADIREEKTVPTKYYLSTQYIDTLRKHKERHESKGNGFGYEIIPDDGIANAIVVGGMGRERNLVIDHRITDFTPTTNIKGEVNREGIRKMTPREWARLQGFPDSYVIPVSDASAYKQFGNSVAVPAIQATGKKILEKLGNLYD

Sequence of M.SssI Q142A/N370A Q142A,N370A (Spiroplasma sp.?) (P15840 whole entry Q142A/N370A): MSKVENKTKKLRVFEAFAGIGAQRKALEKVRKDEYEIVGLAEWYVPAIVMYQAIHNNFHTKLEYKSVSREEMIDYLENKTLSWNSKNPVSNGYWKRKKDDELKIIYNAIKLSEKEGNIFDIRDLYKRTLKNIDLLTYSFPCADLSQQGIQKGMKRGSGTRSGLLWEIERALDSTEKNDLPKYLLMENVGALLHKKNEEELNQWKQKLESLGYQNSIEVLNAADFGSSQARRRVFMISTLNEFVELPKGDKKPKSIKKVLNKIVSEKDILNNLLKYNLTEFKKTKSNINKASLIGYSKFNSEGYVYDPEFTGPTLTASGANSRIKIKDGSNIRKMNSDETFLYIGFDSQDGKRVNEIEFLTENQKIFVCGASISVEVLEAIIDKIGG
Sequence of M.SssI (original) (Spiroplasma sp.?) (P15840 whole entry): as the sequence (P15840 whole entry Q142A/N370A) above, with A142Q, A370N counted along it

Question: 1343 bp DNA fragment with 18 SssI sites was tested. Which binding signal (fold of Q142A/N370A) [1] did it give?
Answer: Its binding signal (fold of Q142A/N370A) is 0.01.

Question: And the activity ([2]; 10 mM MgCl2, MTase:DNA 2:1, 37 C 2 h)?
Answer: The activity was 30 % protected.

Question: And the activity ([2]; no MgCl2, MTase:DNA 2:1, 37 C 2 h)?
Answer: Its activity is 70 % protected.

Question: And the activity [3]?
Answer: Its activity is 50 % protected.

Question: “Control-Sss nonspecific fragment (no target sites)” was tested. Which activity ([4]; nonspecific probe, same conditions) did it give?
Answer: Its activity is < 1 % recovered.

Question: “Control-Sss specific fragment (two SssI sites)” was tested. Which activity ([4]; Ado-6-amine 50 uM, 1450 nM enzyme, 37 C 30 min, with human genomic DNA) did it give?
Answer: Its activity is 80 % recovered.

Question: With DNA with CCGG sites (unspecified) as the substance, how does the binding signal (fold of Q104A/N335A) [5] read?
Answer: The binding signal (fold of Q104A/N335A) was 0.01.
